Measurements taken from the supplement of paper PMC12042874.
± gives the uncertainty stated by the source.

Test: amyloid nucleation score (Sup35N fusion, yeast selection) (log enrichment); library NNK2; higher = more nucleation; inactive = no reads after selection
Outline: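 The nucleation score, computed with DiMSum, is the log enrichment of output over input reads, centred on the mode score of non-aggregating sequences. Sequences with under 100 input reads were dropped. Reads were generated by Illumina sequencing of plasmid inserts from psi-negative yeast with Sup35N fused to peptides of 20 random codons, induced with 100 μM copper sulfate for 24 hours and grown 7 days at 30°C on medium lacking adenine and uracil.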

FSTRGSAMLRVAGLSGPRAS and FSVRRLVDHFSNSMEDPHLP are within error of each other in amyloid nucleation score: 0.29 ± 0.43 for the first, -0.342 ± 1 for the second.

Compared with FSVSSLVAVMNNTHLVVSGG, FSVTMDGYIRI is lower in amyloid nucleation score: 2.34 ± 0.081 for the first, 0.06 ± 0.44 for the second.

FSYFVFLVKFVTVFTPTIHV and FSYMWAHTGSFPRRQVIITI are within error of each other in amyloid nucleation score: -1.12 ± 0.3 for the first, -0.596 ± 0.55 for the second.

First: FTAFWGYSTSVFHMDMCLRK
Second: FTFDMVSSKSQYMNIDRNVR
The amyloid nucleation score of the first is higher: 2.17 ± 0.071 for the first, -0.996 ± 0.78 for the second.

Compared with FTSSYKSAVRTLIFVLSESG, FTTFRR is lower in amyloid nucleation score: 0.331 ± 0.36 for the first, -0.854 ± 0.55 for the second.

Going from FTTPSRS to FTVMFLLKMISFKGALHLRL, the amyloid nucleation score falls from 0.623 ± 0.53 to -0.764 ± 0.65.

FTWLRPRGFS and FVDVKHDVVKAMRLWFR are within error of each other in amyloid nucleation score: -0.676 ± 0.27 for the first, -0.632 ± 1.1 for the second.

First: FVEITRG
Second: FVGTCSHYRGCSVCFITDLL
The amyloid nucleation score of the first is lower: -0.196 ± 1.1 for the first, 6.135 ± 0.057 for the second.

FVHERASGIVMLRGISVRGP and FVLSTVRLSAASAPMRFTHL are within error of each other in amyloid nucleation score: -0.327 ± 0.48 for the first, 0.468 ± 0.74 for the second.

Going from FVNLRFSKVGWYDLF to FVRNKLMADFFWLGFYN, the amyloid nucleation score falls from -0.255 ± 0.65 to -1.79 ± 0.63.

Compared with FVSLWT, FVTAKSYNVLISKGYRKELL is lower in amyloid nucleation score: 0.277 ± 0.45 for the first, -0.716 ± 0.48 for the second.

First: FVTCYKLWMAFYTMVQSRKS
Second: FVYSVRS
The amyloid nucleation score of the first is higher: 1.17 ± 0.48 for the first, 0.025 ± 0.63 for the second.

First: FWGGKNYI
Second: FWLGSVVGNSCAWVITWAIL
The amyloid nucleation score of the first is lower: -1.5 ± 0.75 for the first, -0.036 ± 0.44 for the second.

First: FWVALYFSTCFPHDMLSSGP
Second: FWVVIVAHSVSWLLLTWQLE
The amyloid nucleation score of the first is lower: -0.734 ± 0.54 for the first, 0.553 ± 0.65 for the second.

First: FYDSVKEISVLSCVWGDILE
Second: FYIKRVTAVNCDTDSSFNVL
The amyloid nucleation score of the first is higher: 7.235 ± 0.029 for the first, -0.805 ± 0.42 for the second.

FYISKFLAWFIIPSGLFLGN and FYKHMLVTATFSLMYITQDD are within error of each other in amyloid nucleation score: -1.72 ± 1.1 for the first, -0.404 ± 0.48 for the second.

FYPVFKSMLVMAGVTRHLAR and FYSGKRARMGGEGGEKTPRS are within error of each other in amyloid nucleation score: -0.487 ± 0.26 for the first, -1.2 ± 0.48 for the second.

FYVRSSTYFFHVYNYL and FYWHCKGWQRISLGRFIGDC are within error of each other in amyloid nucleation score: -0.387 ± 0.28 for the first, -0.622 ± 0.61 for the second.

GACVAKATF and GAELPKYESRLPFLSAGLRQ are within error of each other in amyloid nucleation score: 0.616 ± 0.19 for the first, -0.048 ± 0.53 for the second.

Compared with GASPWPHTTMIFISILSNCV, GAVNFYHT is higher in amyloid nucleation score: 3.37 ± 0.11 for the first, 4.06 ± 0.044 for the second.

GCDTRHSPLVSNALGLAIAS and GCHVRSFK are within error of each other in amyloid nucleation score: -0.052 ± 0.49 for the first, 0.158 ± 0.31 for the second.

Going from GCLMVGINGCPIGPM to GCLPHGY, the amyloid nucleation score rises from -1.11 ± 1.1 to 0.663 ± 0.62.

GCSVCDMTF and GDKVACKEIWTVNVYVNTLG are within error of each other in amyloid nucleation score: 0.073 ± 0.53 for the first, 0.229 ± 0.26 for the second.

Going from GDKYICELHWRFLGQNSVW to GDMVIDLSKYITYSSL, the amyloid nucleation score falls from 4.07 ± 0.11 to 1.37 ± 0.38.

Going from GDRDVI to GDRYSSYSRFEEY, the amyloid nucleation score falls from 1.31 ± 0.38 to 0.565 ± 0.19.

First: GECLDR
Second: GEFSLF
The amyloid nucleation score of the first is higher: 2.83 ± 0.075 for the first, 0.2 ± 0.37 for the second.

GEHRQGCYFGAIVFAILMFS and GESSPE are within error of each other in amyloid nucleation score: 0.007 ± 0.55 for the first, 0.343 ± 0.8 for the second.

Going from GFDLNFRYA to GFFTPPRVRNNTSEGDVK, the amyloid nucleation score falls from 4.43 ± 0.077 to -0.418 ± 1.1.

Compared with GFHIGDVCNYGVVFSSVARL, GFHSCG is lower in amyloid nucleation score: 5.863 ± 0.05 for the first, 4.85 ± 0.067 for the second.

GFLGCESREKEECSIKERLC and GFLQSGCPSTLLSLRKRAIL are within error of each other in amyloid nucleation score: -0.515 ± 1 for the first, 0.307 ± 0.51 for the second.

Going from GFPVWVYYKMDLYCLSVKGI to GFWEGRILG, the amyloid nucleation score rises from -0.672 ± 0.61 to 2.61 ± 0.22.

Going from GGHDCTVPDGFALGWYMTRG to GGIFFCGIWCLVYDVSVFVA, the amyloid nucleation score rises from 0.995 ± 0.51 to 3.43 ± 0.11.

GGLMRTSPNS and GGLPGRVVEATCWYPVINVR are within error of each other in amyloid nucleation score: -0.108 ± 1.1 for the first, 0.889 ± 0.47 for the second.

First: GGMDNQCHLVRCGRRSLAPV
Second: GGPSGQFCYPGGNKGYCN
The amyloid nucleation score of the first is higher: 1.65 ± 0.4 for the first, -0.724 ± 1 for the second.

Going from GGSRTRSCQDRAHEGGK to GGTIKALYNSSGTRRMSKLR, the amyloid nucleation score falls from 0.949 ± 0.74 to -0.224 ± 0.2.

GGTPRSINVF and GGYGLICCYQMLEDSTKDMM are within error of each other in amyloid nucleation score: 0.201 ± 0.8 for the first, -0.603 ± 1.1 for the second.

First: GHCLSYMCVGLA
Second: GHLNFS
The amyloid nucleation score of the first is higher: 4.304 ± 0.039 for the first, -0.166 ± 1.1 for the second.

Compared with GHLRYTIDTGTTSGSSDLMS, GHPSIDAQTPV is higher in amyloid nucleation score: -0.842 ± 0.63 for the first, 1.39 ± 0.47 for the second.

First: GICHWGLLFTACFIPWRMRG
Second: GIFTTWNRISRRLCLRVHYP
The amyloid nucleation score of the first is higher: 1.37 ± 0.32 for the first, -0.497 ± 0.34 for the second.

Compared with GIIDMSRLVMHQITEPLLSQ, GILMISDAYDIREYFKLVTF is lower in amyloid nucleation score: 0.092 ± 0.32 for the first, -1.32 ± 0.62 for the second.

Going from GIMSSELLYYYVRISYESC to GINCRGAIR, the amyloid nucleation score rises from -1.21 ± 0.45 to -0.345 ± 0.26.

Going from GINFVF to GINISVLNMRQLFRLSAGSH, the amyloid nucleation score rises from -0.287 ± 0.79 to 4.36 ± 0.086.

For FSVLMEDHSRFIF, the amyloid nucleation score was “inactive”.
In the case of FTRRSGSRLWTRFALGDWVA, the amyloid nucleation score is reported as “inactive”.
In the case of FVGVYMVLRSLGDRVSYVMF, the amyloid nucleation score is reported as “inactive”.
